± gives the uncertainty stated by the source.
Experiment: amyloid nucleation score (Sup35N fusion, yeast selection) (log enrichment); library NNK1; higher = more nucleation; inactive = no reads after selection
Summary of the method: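 Three technical output replicates were used for random libraries. Psi-negative yeast expressing peptides of 20 random codons fused to Sup35N were induced with 100 μM copper sulfate for 24 hours and grown 7 days at 30°C on medium lacking adenine and uracil, and input and output plasmid inserts were Illumina-sequenced, excluding sequences with under 100 input reads. The nucleation score is the DiMSum log enrichment of output over input reads, centred on the mode score of non-aggregating sequences.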

| Substance | amyloid nucleation score |
| --- | --- |
| AVGRPPIRYRNTHSISTDSE | 0.565 ± 0.31 |
| AVLNFIQVVVVVEVVGCYQH | 2.68 ± 0.28 |
| AVSIRCFGRMMTLSGSKIAG | 0.838 ± 0.25 |
| AWGRLAGYRRGSWMYYCCNS | 0.435 ± 0.82 |
| AWILRWKEIPMEYSLSS | 0.202 ± 0.56 |
| AWNCHKFND | 0.668 ± 0.78 |
| AWQRVSVKFELGDIGPEGLY | -0.668 ± 0.31 |
| AYEGKGITGHLIFSWKSKSL | 1.55 ± 0.13 |
| AYFMGHCLKGPRVTLVGCKT | 0.525 ± 0.65 |
| AYGKRTNTRICDNKTLGVSS | -0.745 ± 2.4 |
| AYHNDWR | -0.85 ± 0.76 |
| AYIDKMCTPYNKGRLLMHWY | 1.97 ± 0.48 |
| AYIVNIELGNRTS | 7.04 ± 0.056 |
| AYNAECSVWSRRCSIAVMDL | 0.757 ± 0.58 |
| AYNDSAVGRAGGLFVVGLFV | -0.51 ± 0.58 |
| AYSSARHFFTLTFKEIRFGR | 0.141 ± 1.4 |
| AYWSGTYEGEWYLVDRQFYW | 0.542 ± 1 |
| AYYSRNIIKPGKKVEVPKMG | -1.01 ± 0.72 |
| CAFCI | -0.766 ± 1 |
| CAHIY | -0.747 ± 0.99 |
| CAKGCCD | -0.344 ± 0.72 |
| CALAIRIVCS | inactive |
| CASRFMCGPTINKWVR | -1.02 ± 1.1 |
| CAYVVVLLCSVLVDAGYVCR | 1.94 ± 0.17 |

| Substance | amyloid nucleation score |
| --- | --- |
| CCADPMHYTFHSSNLVFPLM | 0.294 ± 0.37 |
| CCERGWS | 0.156 ± 0.72 |
| CDGVMKSGVKKMSTSRDWFM | inactive |
| CDIIYFACGDREV | inactive |
| CDLLRSLTVS | 0.946 ± 0.6 |
| CDNSLDSIWFVSVSWN | 1.16 ± 0.69 |
| CDVLFGLLSLRYLPSSLRIG | -0.434 ± 0.48 |
| CFCPSKGDTDRLWAHFSARF | -0.093 ± 0.45 |
| CFFEILLSMISTMPRNVKLR | -0.28 ± 0.41 |
| CFFMEFYVPNSIIIYVRTPV | -1.89 ± 0.96 |
| CFINSDVMVLLVTTYHYS | 7.321 ± 0.071 |
| CFRYVCIILMSVLMNYNFVY | -0.05 ± 0.2 |
| CFSLLNYSCFSCIDLFHPLY | 5.23 ± 0.084 |
| CFSMILVYYVLFARFVSWSM | 0.15 ± 0.41 |
| CFVVHMSKEFYGRYFVRRIN | inactive |
| CGDMKRSHGCYFGPRNRFCW | 0.517 ± 0.47 |
| CGFALSRQVDILILLADSYD | 0.167 ± 1.1 |
| CGHMR | 0.327 ± 0.33 |
| CGIING | -1.08 ± 1.7 |
| CGLKNFGVLSFRSIDCQRKG | -1.48 ± 1.1 |
| CGLLVVLRANVFILCGYK | 0.399 ± 0.24 |
| CGSRVDGSCTAGTSIWVVDV | 0.528 ± 0.66 |
| CGWSSMIVP | 0.343 ± 0.63 |
| CHNVVGSVKRIRSKFMKCFV | inactive |

| Substance | amyloid nucleation score |
| --- | --- |
| CHYGDPSGWGQLTPSTWTGE | 0.573 ± 0.42 |
| CIFFVNTGHGYLWQDYAHSN | 3.58 ± 0.15 |
| CISLFFVKCGRQAAHPQSRR | 8.295 ± 0.062 |
| CITFMVRYGLRLHR | 0.089 ± 0.58 |
| CIVYFSCLMYHWILDC | 0.422 ± 0.65 |
| CIWQWVKDNDDNKVAS | -1.04 ± 0.46 |
| CIYELRGLVRFWSHRVNRER | -0.445 ± 0.45 |
| CKGFK | inactive |
| CKSESRFLFAYNSLCLKSMG | -0.043 ± 0.3 |
| CKTLMLCTRICFDANQLASR | 1.71 ± 0.78 |
| CLAGLYNCGGR | 0.679 ± 0.65 |
| CLATLSMSYLLFVSGLRRIK | -0.554 ± 0.59 |
| CLDMVWDLTVMFMF | 1.11 ± 0.19 |
| CLEVFKNGCRNLRTGRVINR | 1.03 ± 0.9 |
| CLFDATVLNVLYQEIAEPRR | inactive |
| CLGHISVMNVTASNANYHFS | 7.237 ± 0.053 |
| CLIRIVKF | 1.08 ± 0.7 |
| CLIVKRIFFYLNYHKKVELL | -0.573 ± 1.4 |
| CLIYYVYSRWIIPMYITGRR | -0.27 ± 0.81 |
| CLNGMQPHKWFGMCVWVCPC | -0.212 ± 0.58 |
| CLQCKCYNNCVQLRVTVGCM | 1.37 ± 0.52 |
| CLSDGTMAFPCPGRQDVRTV | -0.015 ± 0.34 |

— the supplement of paper PMC12042874
